# Assay results reported in patent publication US20120073001A1, “METHODS AND COMPOSITIONS FOR […] OR […] […]” (THE JOHNS HOPKINS UNIVERSITY, published 2012).
# Target: T1, mouse MrgprC11, endogenous in wild-type DRG neurons (mouse)
# T1 chain: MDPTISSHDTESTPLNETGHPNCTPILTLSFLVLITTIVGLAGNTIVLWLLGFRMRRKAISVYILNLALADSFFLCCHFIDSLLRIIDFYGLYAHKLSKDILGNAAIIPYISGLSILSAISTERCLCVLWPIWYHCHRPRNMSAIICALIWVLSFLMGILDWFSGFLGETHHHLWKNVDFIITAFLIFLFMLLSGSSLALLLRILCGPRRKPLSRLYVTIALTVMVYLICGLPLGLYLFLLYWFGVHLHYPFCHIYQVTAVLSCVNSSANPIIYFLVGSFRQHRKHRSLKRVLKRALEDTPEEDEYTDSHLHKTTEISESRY
# Experiment: cell-based or functional assay
binder,measurement,value
VGRPEWWMDYQKRYG [BAM8-22],"increased [Ca2+]i, calcium imaging of WT and Mrgpr-cluster deletion DRG neurons",3.6 % of WT DRG neurons
